Here are results for two molecules from PMC8529701, “Biofoundry-assisted expression and characterization of plant proteins”.

This data set concerns the target T1, AtTGA2 (6xHis-HRV3C-AtTGA2-HiBiT, plasmid pEPQDKN0742) (UniProt P43273 1-330).
T1 sequence: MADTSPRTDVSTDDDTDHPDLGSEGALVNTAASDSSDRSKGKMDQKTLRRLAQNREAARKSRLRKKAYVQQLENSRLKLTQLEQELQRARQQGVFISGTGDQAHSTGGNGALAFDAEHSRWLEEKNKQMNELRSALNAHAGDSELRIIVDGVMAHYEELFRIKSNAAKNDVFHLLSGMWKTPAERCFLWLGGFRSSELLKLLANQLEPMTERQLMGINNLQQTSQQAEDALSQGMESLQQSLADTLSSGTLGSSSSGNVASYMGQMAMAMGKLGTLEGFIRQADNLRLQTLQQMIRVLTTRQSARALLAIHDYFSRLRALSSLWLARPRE
Briefly: EMSA; 500 ng poly(dI-dC); 20 mM Tris-HCl pH 8.0, 50 mM KCl, 2 mM DTT, 1 mM EDTA, 500 ng poly(dI-dC), 5% glycerol, 0.05% IGEPAL CA630, 0.1 mg/ml BSA; about 500 pmol protein, 5.5 pmol probe; room temperature 1 h; 6% TBE gel. The conditions noted are these: protein: ivt; tags: N-terminal NET-6xHis-HRV3C (as described for plasmid); C-terminal HiBiT; label: Alexa-488 at 5' end of the complementary strand (Klenow extension of labelled primer S3); blunt.

B1: TGA TFBS probe (dsDNA)
DNA 1: GACCCCTATTGCAGCTATTTCACCTGACGTAAGGGATGACGCACAGGCCATCACGCAGTA
DNA 2: TACTGCGTGATGGCCTGTGCGTCATCCCTTACGTCAGGTGAAATAGCTGCAATAGGGGTC
With B1, the binding result is on record as “binds”.

B2: Random control probe (dsDNA)
DNA 1: GACCCCTATTGCAGCTATTTCACACATACCAACGCTTAGCGCAATGGCCATCACGCAGTA
DNA 2: TACTGCGTGATGGCCATTGCGCTAAGCGTTGGTATGTGTGAAATAGCTGCAATAGGGGTC
In the case of B2, the binding result is given as “no binding”.
